# According to patent US20230137351A1:
# Molecular target: human beta-Klotho/FGFR1c complex on stable AM-1D cells (human) (UniProt Q86Z14)
# Chain of UniProt Q86Z14 (Q86Z14 whole entry, chain 1 of 2): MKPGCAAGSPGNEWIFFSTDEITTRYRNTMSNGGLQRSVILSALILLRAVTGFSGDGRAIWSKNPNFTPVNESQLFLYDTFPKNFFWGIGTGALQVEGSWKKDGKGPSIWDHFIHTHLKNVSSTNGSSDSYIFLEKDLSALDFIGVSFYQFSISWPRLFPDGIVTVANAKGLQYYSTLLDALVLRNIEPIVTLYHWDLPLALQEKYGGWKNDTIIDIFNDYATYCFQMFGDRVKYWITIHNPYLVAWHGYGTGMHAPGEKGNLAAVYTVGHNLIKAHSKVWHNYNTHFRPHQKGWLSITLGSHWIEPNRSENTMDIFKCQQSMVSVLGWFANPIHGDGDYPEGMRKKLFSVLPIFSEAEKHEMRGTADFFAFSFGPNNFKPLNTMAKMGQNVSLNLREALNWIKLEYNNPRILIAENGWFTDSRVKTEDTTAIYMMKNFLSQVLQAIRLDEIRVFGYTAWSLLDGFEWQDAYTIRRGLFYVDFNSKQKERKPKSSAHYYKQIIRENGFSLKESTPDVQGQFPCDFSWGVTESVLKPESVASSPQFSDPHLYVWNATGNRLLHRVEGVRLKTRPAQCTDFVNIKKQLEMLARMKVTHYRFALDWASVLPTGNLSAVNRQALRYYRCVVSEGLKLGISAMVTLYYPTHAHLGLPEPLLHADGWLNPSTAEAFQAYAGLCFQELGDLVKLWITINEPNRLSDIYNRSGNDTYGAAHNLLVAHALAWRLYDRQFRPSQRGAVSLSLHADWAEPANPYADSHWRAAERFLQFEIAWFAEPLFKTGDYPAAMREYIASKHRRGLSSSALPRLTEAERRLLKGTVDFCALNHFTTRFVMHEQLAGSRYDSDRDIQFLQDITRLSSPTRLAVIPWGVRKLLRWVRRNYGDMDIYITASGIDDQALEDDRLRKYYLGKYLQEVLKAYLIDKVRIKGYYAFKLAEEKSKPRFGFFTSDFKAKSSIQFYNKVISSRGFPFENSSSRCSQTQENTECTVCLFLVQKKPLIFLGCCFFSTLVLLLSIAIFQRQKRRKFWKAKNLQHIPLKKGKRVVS
# Chain of UniProt Q86Z14 (P11362 22-822, chain 2 of 2, further chain): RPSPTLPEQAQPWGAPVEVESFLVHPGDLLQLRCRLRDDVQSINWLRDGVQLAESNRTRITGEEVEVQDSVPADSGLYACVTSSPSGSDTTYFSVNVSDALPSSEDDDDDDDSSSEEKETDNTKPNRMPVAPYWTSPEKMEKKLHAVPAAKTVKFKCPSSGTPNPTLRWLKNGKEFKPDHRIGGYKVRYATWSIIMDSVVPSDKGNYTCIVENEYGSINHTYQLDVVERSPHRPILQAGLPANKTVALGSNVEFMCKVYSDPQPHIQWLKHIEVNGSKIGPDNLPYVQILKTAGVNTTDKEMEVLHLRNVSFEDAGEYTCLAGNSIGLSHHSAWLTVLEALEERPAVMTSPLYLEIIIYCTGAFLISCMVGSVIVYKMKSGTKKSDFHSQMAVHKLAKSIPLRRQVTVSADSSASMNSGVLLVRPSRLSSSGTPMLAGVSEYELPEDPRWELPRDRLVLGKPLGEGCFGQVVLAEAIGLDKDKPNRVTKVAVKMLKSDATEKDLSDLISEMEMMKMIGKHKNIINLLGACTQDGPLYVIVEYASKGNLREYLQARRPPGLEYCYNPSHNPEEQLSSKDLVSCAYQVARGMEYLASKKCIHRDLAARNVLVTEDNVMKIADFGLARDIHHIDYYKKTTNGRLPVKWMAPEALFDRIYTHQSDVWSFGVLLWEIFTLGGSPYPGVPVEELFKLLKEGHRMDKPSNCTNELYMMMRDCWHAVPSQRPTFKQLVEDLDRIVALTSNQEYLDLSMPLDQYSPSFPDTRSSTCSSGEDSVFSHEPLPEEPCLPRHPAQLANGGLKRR
substance,measurement,value
FGF21 (from UniProt Q9NSA1 29-209) (ligand),adipocyte pERK assay: EC50 (read off the curve) [lower row],0.7 nM
